Experimental data: article doi:10.1101/2025.09.11.675649

Biological target: Amuc1033^6S-GlcNAc (Akkermansia muciniphila) (UniProt B2UQX4)
Experiment: SEC-MALS

stoichiometry N: 2
Substance: Amuc1033^6S-GlcNAc (from UniProt B2UQX4 1-581) (enzyme)
